From US20190194291A1 (Hoffmann-La Roche, published 2019) come the findings set out here.

Residue numbers refer to the chain shown, from its start.

One experiment has as its target T1, cyCD19 ECD (cynomolgus, UniProt A0A2K5W8L9 20-292).
T1 construct: extracellular domain; also called cynomolgus CD19 extracellular domain; cynomolgus CD19
T1 sequence: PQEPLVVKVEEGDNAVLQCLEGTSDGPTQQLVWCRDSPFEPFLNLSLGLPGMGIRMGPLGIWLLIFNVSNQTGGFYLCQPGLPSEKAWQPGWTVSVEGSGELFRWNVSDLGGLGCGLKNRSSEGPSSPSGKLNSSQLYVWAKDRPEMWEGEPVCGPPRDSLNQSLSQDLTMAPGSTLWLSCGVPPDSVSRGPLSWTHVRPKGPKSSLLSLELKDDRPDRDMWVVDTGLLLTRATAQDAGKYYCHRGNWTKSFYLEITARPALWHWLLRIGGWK
In words: binding to CD19 ECD, method not stated.

Experiment [1] addresses T2, human CD19 (antigen of Table 9, construct not stated) (human, UniProt P15391 20-291, limits assumed).
T2 sequence: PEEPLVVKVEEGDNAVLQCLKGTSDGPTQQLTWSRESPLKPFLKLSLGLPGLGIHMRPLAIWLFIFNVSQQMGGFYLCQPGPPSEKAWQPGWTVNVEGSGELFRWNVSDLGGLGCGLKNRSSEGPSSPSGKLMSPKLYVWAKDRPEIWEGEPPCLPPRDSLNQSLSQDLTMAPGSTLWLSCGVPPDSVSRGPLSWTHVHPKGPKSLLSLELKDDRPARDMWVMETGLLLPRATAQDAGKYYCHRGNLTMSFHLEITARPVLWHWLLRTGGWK
In words: BIAcore (SPR), format not stated.

A further experiment addresses T3, huCD19 ECD (human, UniProt P15391 20-291).
T3 construct: also called human CD19 extracellular domain
T3 sequence: T2 sequence
In words: binding to CD19 ECD, method not stated.

In experiment [2] the target is T2, human CD19 (antigen of Table 9, …). Put plainly: listed under the BIAcore KD; taken as half-life of the complex.
Experiment [3] addresses T4, monomeric human CD19 antigen Fc(kih) fusion molecule (human, UniProt P0DOX5 223-449 = IgG part).
T4 construct: Heterodimeric Fc fusion with a single copy of the CD19 ectodomain; also called human CD19 Fc(kih); Recombinant human CD19
Put plainly: SPR (ProteOn XPR36): Fab from bacterial supernatant captured on anti-human Fab antibody, monomeric CD19-Fc 150-6 nM as analyte, 1:1 Langmuir fit. The method, then: In order to further characterize the ELISA-positive clones, the off-rate was measured by surface plasmon resonance and compared with the parental humanized clone 8B8.
For this experiment, 7000 RU of polyclonal anti-human Fab antibody were immobilized on all 6 channels of a GLM chip by Amine coupling (NaAcetate pH4.5, 25 μl/min, 240 s) (vertical orientation). Each antibody-containing bacterial supernatant was filtered and 2-fold diluted with PBS, and then injected for 360 s at 25 μl/minute to achieve immobilization levels of between 100 and 400 response units (RU) in vertical orientation. […] Regeneration was performed by two pulses of 10 mM glycine pH 1.5 and 50 mM NaOH for 30 s at 90 ul/min (horizontal orientation). Dissociation rate constants (koff) were calculated using a simple one-to-one Langmuir binding model in ProteOn Manager v3.1 software by simultaneously fitting the sensorgrams. […] The variable domains of the corresponding phagemids were sequenced.

For experiment [4], the target named is T5, human CEA expressed on MKN45 cells (human, UniProt P06731 35-685).
T5 construct: also called CEA-expressing human gastric adenocarcinoma cells (MKN45)
T5 sequence: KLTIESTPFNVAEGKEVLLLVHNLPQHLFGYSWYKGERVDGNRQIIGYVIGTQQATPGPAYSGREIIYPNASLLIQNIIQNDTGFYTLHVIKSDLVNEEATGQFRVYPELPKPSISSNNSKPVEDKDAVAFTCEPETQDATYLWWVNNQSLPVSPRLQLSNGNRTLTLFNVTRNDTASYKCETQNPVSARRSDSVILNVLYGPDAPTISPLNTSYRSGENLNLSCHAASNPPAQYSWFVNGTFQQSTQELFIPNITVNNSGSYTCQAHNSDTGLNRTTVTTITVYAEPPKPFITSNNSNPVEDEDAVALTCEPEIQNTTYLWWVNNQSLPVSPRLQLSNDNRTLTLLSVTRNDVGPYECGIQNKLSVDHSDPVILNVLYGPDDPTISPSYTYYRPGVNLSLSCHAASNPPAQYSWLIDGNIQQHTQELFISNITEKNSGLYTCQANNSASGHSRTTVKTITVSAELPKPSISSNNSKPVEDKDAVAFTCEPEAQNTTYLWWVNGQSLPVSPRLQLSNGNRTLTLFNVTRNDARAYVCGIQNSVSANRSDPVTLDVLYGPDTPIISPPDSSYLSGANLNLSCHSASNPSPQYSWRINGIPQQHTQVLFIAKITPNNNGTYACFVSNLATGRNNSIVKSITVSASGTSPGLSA
In words: flow cytometry on CEA-expressing MKN45 cells, PE anti-human IgG Fc detection. As to the method:
The binding of different humanized variants of T84.66 IgG was tested on CEA-expressing human gastric adenocarcinoma cells (MKN45, DSMZ ACC 409).
Cells were harvested, counted, checked for viability and re-suspended at 2×10⁶ cells/ml in FACS buffer (100 μl PBS 0.1% BSA). […] Binding curves and EC50 values were obtained and calculated using GraphPadPrism5.

B1: wild-type humanized anti-human CD19 antibody 8B8 (antibody, V domains shown)
VH: QVQLVQSGAEVKKPGASVKVSCKASGYTFTDYIMHWVRQAPGQGLEWMGYINPYNDGSKYTEKFNGRVTMTSDTSISTAYMELSRLRSDDTAVYYCARGTYYYGSALFDYWGQGTTVTVSS
VL: DIVMTQTPLSLSVTPGQPASISCKSSQSLENSNGNTYLNWYLQKPGQSPQLLIYRVSKRFSGVPDRFSGSGSGTDFTLKISRVEAEDVGVYYCLQLTHVPYTFGQGTKLEIK
In the experiment with cyCD19 ECD, B1 showed an EC50 of 0.313 µg/mL.

B2: humanized anti-human CD19 antibody clone 8B8-018 (antibody, V domains shown)
VH: B1 VH with N65Q
VL: B1 VL with S32P
Turning to B2, in experiment [1], the Kd was found to be 6 nM. In addition, the results for the EC50 in the experiment with huCD19 ECD and with cyCD19 ECD were 0.084 µg/mL and 0.255 µg/mL, respectively. Besides, in experiment [2], the “t1/2” value amounted to 43.6 min.

B3: parental humanized clone 8B8 (Fab in bacterial supernatant) (Fab, V domains shown)
VH: B1 VH with N65Q
VL: B1 VL
notes: Soluble Fab with Flag tag from a phagemid, tested as bacterial supernatant; also called Parental 8B8; humanized parental clone 8B8
Turning to B3, the koff in experiment [3] came out at 0.000301 s⁻¹.

B4: affinity-matured 8B8-derived clone 2B11 (Fab in bacterial supernatant) (Fab, V domains shown)
VH: B1 VH with N65Q, S105P, A106Q
VL: B1 VL with N31T, N33T, N35T, T97L, H98E, V99D
notes: Soluble Fab with Flag tag, tested as bacterial supernatant; also called 8B8-2B11
Take B4: in experiment [3], the koff was 4.37e-06 s⁻¹.

B5: Humanized variant 1 of T84.66 IgG (T84.66-LCHA) (antibody, V domains shown)
VH: QVQLVQSGAEVKKPGSSVKVSCKASGFNIKDTYMHWVRQAPGQGLEWMGRIDPANGNSKYVPKFQGRVTITADTSTSTAYMELSSLRSEDTAVYYCAPFGYYVSDYAMAYWGQGTLVTVSS
VL: EIVLTQSPATLSLSPGERATLSCRAGESVDIFGVGFLHWYQQKPGQAPRLLIYRASNRATGIPARFSGSGSGTDFTLTISSLEPEDFAVYYCQQTNEDPYTFGQGTKLEIK
notes: Tested as IgG
Consider B5, for which the EC50 in experiment [4] is 1.5 µg/mL.
